Target: T1, Trim58 PS domain (purified, for SEC-MALLS) (mouse, UniProt Q5NCC9 1-485)
T1 sequence (looked up): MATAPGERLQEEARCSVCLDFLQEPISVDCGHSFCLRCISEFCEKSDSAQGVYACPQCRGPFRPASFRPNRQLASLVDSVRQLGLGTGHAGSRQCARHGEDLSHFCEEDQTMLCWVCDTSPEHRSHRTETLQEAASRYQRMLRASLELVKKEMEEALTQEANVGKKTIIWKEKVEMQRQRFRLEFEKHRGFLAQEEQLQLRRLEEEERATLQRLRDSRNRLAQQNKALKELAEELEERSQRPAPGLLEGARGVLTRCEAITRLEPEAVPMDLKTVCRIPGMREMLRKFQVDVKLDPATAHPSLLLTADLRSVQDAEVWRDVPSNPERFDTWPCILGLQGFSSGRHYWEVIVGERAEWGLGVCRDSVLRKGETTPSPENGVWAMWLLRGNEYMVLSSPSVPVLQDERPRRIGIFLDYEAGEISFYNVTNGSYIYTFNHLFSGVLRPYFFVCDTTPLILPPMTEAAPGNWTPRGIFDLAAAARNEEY
Assay: SEC-MALS

- stoichiometry N: 1
B1: GST-DIC (1–120) (domain or fragment)
chain: MSDKSDLKAELERKKQRLAQIREEKKRKEEERKKKETDQKKEAAVSVQEESDLEKKRREAEALLQSMGLTTDSPIVPPPMSPSSKSVSTPSEAGSQDSGDGAVGSRRGPIKLGMAKITQV
